{"source": "paper PMC2843395", "about": "(Journal of molecular biology, 2010)", "molecules": {"B1": {"name": "S100B (wild-type, recombinant) (natural protein, bovine)", "chain": "MSELEKAVVALIDVFHQYSGREGDKHKLKKSELKELINNELSHFLEEIKEQEVVDKVMETLDSDGDGECDFQEFMAFVAMITTACHEFFEHE"}, "B2": {"name": "TAMRA-TRTK12-am (peptide)", "peptide": "{TAMRA}-TRTKIDWNKILS-NH2", "SMILES": "CC[C@H](C)[C@H](NC(=O)[C@H](CCCCN)NC(=O)[C@H](CC(N)=O)NC(=O)[C@H](Cc1c[nH]c2ccccc12)NC(=O)[C@H](CC(=O)O)NC(=O)[C@@H](NC(=O)[C@H](CCCCN)NC(=O)[C@@H](NC(=O)[C@H](CCCNC(=N)N)NC(=O)[C@@H](NC(=O)c1ccc(-c2c3ccc(=[N+](C)C)cc-3oc3cc(N(C)C)ccc23)c(C(=O)[O-])c1)[C@@H](C)O)[C@@H](C)O)[C@@H](C)CC)C(=O)N[C@@H](CC(C)C)C(=O)N[C@@H](CO)C(N)=O"}}, "key": {"[1]": {"molecular_target": "TAMRA-TRTK12-am", "test": "fluorescence polarisation"}, "[2]": {"molecular_target": "T1, S100B (tight site, EF2) (Bos taurus, UniProt P02638)", "T1 sequence (P02638 1-92)": "B1 chain", "conditions": "p53^367–388; ref [21]; cited from earlier work"}, "[3]": {"molecular_target": "T1, S100B (tight site, EF2)", "conditions": "p53^367–388; ref [21]; cited from earlier work", "remark": "listed apart in the source"}, "[4]": {"molecular_target": "E72A mutant of S100B", "test": "fluorescence polarisation"}, "[5]": {"molecular_target": "S100B (Rattus norvegicus) (UniProt P04631)", "conditions": "cited from earlier work"}, "[6]": {"molecular_target": "the molecule itself", "test": "crystal structure"}, "[7]": {"molecular_target": "B1", "test": "crystal structure"}, "[8]": {"molecular_target": "B1", "test": "fluorescence polarisation"}, "[9]": {"molecular_target": "B1", "test": "fluorescence polarisation", "remark": "listed apart in the source"}, "[10]": {"molecular_target": "B1", "test": "fluorescence polarisation", "remark": "listed apart in the source"}, "[11]": {"molecular_target": "B1", "test": "fluorescence polarisation", "remark": "listed apart in the source"}}, "note": "Read-outs that look alike come from different tables or passages of the source. *: point of attachment. TAMRA = 5-carboxytetramethylrhodamine, CN(C)c1ccc2c(-c3ccc(C(=O)*)cc3C(=O)[O-])c3ccc(=[N+](C)C)cc-3oc2c1", "data": [{"molecule": "E72A mutant of S100B (natural protein)", "values": [{"measurement": "Kd", "setting": "[1]", "value": 16.8, "unit": "µM"}]}, {"molecule": "p53^367–388: peptide derived from the negative regulatory domain of p53 (residues 367–388)", "values": [{"measurement": "Fold increase in Mn2+ binding of S100B with p53 peptide bound", "setting": "[2]", "value": 3, "unit": "fold"}, {"measurement": "Fold increase in Ca2+ affinity of S100B EF2 with p53 peptide bound", "setting": "[3]", "value": 3, "unit": "fold"}]}, {"molecule": "TRTK-12 peptide (derived from the actin capping protein CapZ, residues 265-276)", "values": [{"measurement": "Kapp", "setting": "[4]", "value": 110, "unit": "µM"}, {"measurement": "Kd", "setting": "[4]", "value": 3.2, "unit": "µM"}]}, {"molecule": "S100B (from UniProt P04631)", "values": [{"measurement": "Kd", "setting": "[5]", "value": "< 0.001", "unit": "µM"}]}, {"molecule": "B1", "values": [{"measurement": "stoichiometry N", "setting": "[6]", "value": 2}]}, {"molecule": "TRTKIDWNKILS", "note": "[TRTK-12 peptide (derived from the actin capping protein CapZ, residues 265-276)]", "values": [{"measurement": "stoichiometry N", "setting": "[7]", "value": 1, "unit": "per S100B subunit"}, {"measurement": "Kd", "setting": "[8]", "value": "3 ± 1", "unit": "µM"}, {"measurement": "Kd", "setting": "[9]", "value": "2.9 ± 0.5", "unit": "µM"}]}, {"molecule": "B2", "values": [{"measurement": "Kd", "setting": "[10]", "value": "1.2 ± 0.2", "unit": "µM"}, {"measurement": "Kd", "setting": "[11]", "value": "6 ± 2", "unit": "µM"}]}]}
